Reference: patent US20090155873A1, “BIOFUEL PRODUCTION” (BIO ARCHITECTURE LAB, INC., priority 2007, published 2009)

B1: 2ADH-5: secondary alcohol dehydrogenase isolated from Pseudomonas putida KT2440, SEQ ID NO:118 (protein)
chain: MSKQLTLEGKVALVQGGSRGIGAAIVRRLAREGAQVAFTYVSSAGPAEELAREITENGGKALALRADSADAAAVQLAVDDTEKALGRLDILVNNAGVLAVAPVTEFDLADFDHMLAVNVRSVFVASQAAARYMGQGGRIINIGSTNAERMPFAGGAPYAMSKSALVGLTRGMARDLGPQGITVNNVQPGPVDTDMNPASGEFAESLIPLMAIGRYGEPEEIASFVAYLAGPEAGYITGASLTVDGGFAA
modifications: Pseudomonas putida KT2440
B2: Atu3026 (ADH12): alcohol dehydrogenase ADH12 Atu3026 isolated from Agrobacterium tumefaciens C58, SEQ ID NO:92 (protein)
chain: MQRFTNRTIVVAGAGRDIGRACAIRFAQEGANVVLTYNGAAEGAATAVAEIEKLGRSALAIKADLTNAAEVEAAISAAADKFGEIHGLVHVAGGLIARKTIAEMDEAFWHQVLDVNLTSLFLTAKTALPKMAKGGAIVTFSSQAGRDGGGPGALAYATSKGAVMTFTRGLAKEVGPKIRVNAVCPGMISTTFHDTFTKPEVRERVAGATSLKREGSSEDVAGLVAFLASDDAAYVTGACYDINGGVLFS
modifications: Agrobacterium tumefaciens C58
B3: Atu3027 (ADH11): alcohol dehydrogenase ADH11 Atu3027 isolated from Agrobacterium tumefaciens C58, SEQ ID NO:90 (protein)
chain: MRSELPEGFFGPREWARLNAVADIIPGFPHTDFDTANGAEALAEADILLAAWGTPSLTRERLSRAPRLKMLAYAASSVRMVAPAEFWETSDILVTTAASAMAVPVAEFTYAAIIMCGKDVFRLRDEHRTERGTGVFGSRRGRSLPYLGNHARKVGIVGASRIGRLVMEMLARGTFEIAVYDPFLSAEEAASLGAKKAELDELLAWSDVVSLHAPILPETHHMIGARELALMADHAIFINTARGWLVDHDALLTEAISGRLRILIDTPEPEPLPTDSPFYDLPNVVLTPHIAGALGNELRALSDLAITEIERFVAGLAPLHPVHKQDMERMA
modifications: Agrobacterium tumefaciens C58
B4: 2ADH-10: secondary alcohol dehydrogenase isolated from Pseudomonas putida KT2440, SEQ ID NO:128 (protein)
chain: MSKTHLFDLDGKIAFVSGASRGIGEAIAHLLAQQGAHVIVSSRKLDGCQQVADAIIAAGGKATAVACHIGELEQIQQVFAGIREQFGRLDVLVNNAATNPQFCNVLDTDPGAFQKTVDVNIRGYFFMSVEAGKLMRENGGGSIINVASINGVSPGLFQGIYSVTKAAVINMTKVFAKECAPFGIRCNALLPGLTDTKFASALVKNEAILNAALQQIPLKRVADPKEMAGAVLYLASDASSYTTGTTLNVDGGFLS
modifications: Pseudomonas putida KT2440
B5: ADH2: alcohol dehydrogenase ADH2 Atu2022 isolated from Agrobacterium tumefaciens C58, SEQ ID NO:72 (protein)
chain: MAIARGYAATDASKPLTPFTFERREPNDDDVVIDIKYAGICHSDIHTVRNEWHNAVYPIVPGHEIAGVVRAVGSKVTRFKVGDHVGVGCFVDSCVGCATRDVDNEQYMPGLVQTYNSVERDGKSATQGGYSDHIVVREDYVLSIPDNLPLDASAPLLCAGITLYSPLQHWNAGPGKKVAIVGMGGLGHMGVKIGSAMGADITVLSQTLSKKEDGLKLGAKEYYATSDASTFEKLAGTFDLILCTVSAEIDWNAYLNLLKVNGTMVLLGVPEHAIPVHAFSVIPARRSLAGSMIGSIKETQEMLDFCGKHDIVSEIETIGIKDVNEAYERVLKSDVRYRFVIDMASLDA
modifications: Agrobacterium tumefaciens C58
B6: ADH4: alcohol dehydrogenase ADH4 Atu5240 isolated from Agrobacterium tumefaciens C58, SEQ ID NO:76 (protein)
chain: MTGANQPWEVQEVPVPKAEPGLVLVKIHASGMCYTDVWATQGAGGDIYPQTPGHEVVGEIIEVGAGVHTRKVGDRVGTTWVQSSCGRCSYCRQNRPLTGQTAMNCDSPRTTGFATQGGHAEYIAISAEGTVLLPDGLDYTDAAPMMCAGYTTWSGLRDAEPKPGDRIAVLGIGGLGHVAVQFSKALGFETIAITHSPDKHKLATDLGADIVVADGKELLEAGGADVLLVTTNDFDTAEKAMAGVRPDGRIVLCALDFSKPFSIPSDGKPFHMMRQRVVGSTHGGQHYLAEILDLAAKGKVKPIVETFALEQATEAYERLSTGKMRFRGVFLPHGA
modifications: Agrobacterium tumefaciens C58
B7: ADH3: alcohol dehydrogenase ADH3 Atu0626 isolated from Agrobacterium tumefaciens C58, SEQ ID NO:74 (protein)
chain: MTKTMKAAVVRAFGKPLTIEEVAIPDPGPGEILINYKATGVCHTDLHAATGDWPVKPNPPFIPGHEGAGYVAKIGAGVTGIKEGDRAGTPWLYTACGCCIPCRTGWETLCPSQKNSGYSVNGSFAEYGLADPKFVGRLPDNLDFGPAAPVLCAGVTVYKGLKETEVRPGEWVVISGIGGLGHMAVQYAKAMGMHVVAADIFDDKLALAKKLGADVVVNGRAPDAVEQVQKATGGVHGALVTAVSPKAMEQAYGFLRSKGTMALVGLPPGFISIPVFDTVLKRITVRGSIVGTRQDLEEALTFAGEGKVAAHFSWDKLENINDIFHRMEEGKIDGRIVVDLAA
modifications: Agrobacterium tumefaciens C58
B8: ADH1: alcohol dehydrogenase ADH1 Atu1557 isolated from Agrobacterium tumefaciens C58, SEQ ID NO:70 (protein)
chain: MFTTSAYACDDGSSPMKLATIRRRDPGPRDVEIEIEFCGVCHSDIHTARSEWPGSLYPCVPGHEIVGRVGRVGAQVTRFKTGDRVGVGCIVDSCRECASCAEGLEQYCENGMTGTYNSPDKAMGGGAHTLGGYSAHVVVDDRYVLNIPEGLDPAAAAPLLCAGITTYSPLRHWNAGPGKRVGVVGLGGLGHMAVKLANAMGATVVMITTSPGKAEDAKKLGAHEVIISRDAEQMKKATSSLDLIIDAVAADHDIDAYLALLKRDGALVQVGAPEKPLSVMAFSLIPGRKTFAGSMIGGIPETQEMLDFCAEKGIAGEIEMIDIDQINDAYERMIKSDVRYRFVIDMKSLPRQKAA
modifications: Agrobacterium tumefaciens C58
B9: 2ADH-8: secondary alcohol dehydrogenase isolated from Pseudomonas putida KT2440, SEQ ID NO:124 (protein)
chain: MSLQGKVALVTGASRGIGQAIALELGRQGATVIGTATSASGAERIAATLKEHGITGTGMELNVTSAESVEAVLAAIGEQFGAPAILVNNAGITRDNLMLRMKDDEWFDVIDTNLNSLYRLSKGVLRGMTKARWGRIISIGSVVGAMGNAGQANYAAAKAGLEGFSRALAREVGSRGITVNSVTPGFIDTDMTRELPEAQREALQTQIPLGRLGQADEIAKVVSFLASDGAAYVTGATVPVNGGMYM
modifications: Pseudomonas putida KT2440
B10: ADH9: alcohol dehydrogenase ADH9 Atu4087 isolated from Agrobacterium tumefaciens C58, SEQ ID NO:86 (protein)
chain: MKAIVAHGAKDVRIEDRPEEKPGPGEVRLRLARGGICGSDLHYYNHGGFGAVRLREPMVLGHEVSAVIEELGEGVEGLKIGGLVAVSPSRPCRTCRFCQEGLHNQCLNMRFYGSAMPFPHIQGAFREILVADALQCVPADGLSAGEAAMAEPLAVTLHATRRAGDLLGKRVLVTGCGPIGILSILAARRAGAAEIVATDLSDFTLGKAREAGADRVINSKDEPDALAAYGANKGTFDILYECSGAAVALAGGITALRPRGIIVQLGLGGDMSLPMMAITAKELDLRGSFRFHEEFATGVELMRKGLIDVKPFITQTVDLADAISAFEFASDRSRAMKVQIAFS
modifications: Agrobacterium tumefaciens C58

Tests used:
Assay type in all cases: biochemical
[1] = NADPH Production Assay (oxidation of 4-octanol); details: NADP+, 30° C., FIG. 30B
Experimental: Various secondary alcohol dehydrogenases (2ADHs) were isolated from Pseudomonas putida KT2440, Pseudomonas fluorescens Pf-5, and Klebsiella pneumoniae MGH 78578. All vectors were transformed in BL21(DE3) competent cells and expression of the genes encoding the proteins of interest was induced with IPTG (via the T7 promoter). The cells were lysed, proteins were extracted and then purified on Ni-NTA columns. Final protein concentration in the Ni-NTA eluate was diluted to 0.15 mg/mL prior to assays.
[…] consumption and production assays were performed using a THERMOmax microplate reader in the kinetic mode, monitoring the NADPH absorbance peak at 340 nm until the reaction reached equilibrium. […] These reaction conditions are found in Table 4 below.

[2] = In vitro pyruvate formation from alginate or mannuronate; details: purified enzyme ~5 ug, over night, pyruvate assay kit, FIG. 6B and 6C
[3] = Assay for DEHU hydrogenase (NADPH dependent DEHU hydrogenation); details: cell lysate, absorbance at 340 nm for 30 min, FIG. 7A
Experimental: (§1) To identify DEHU hydrogenase, a NADPH dependent DEHU hydrogenation assay was performed. 20 μl of prepared cell lysate containing each ADH was added to 160 μl of 20-fold deluted DEHU solution prepared in the above section. 20 μl of 2.5 mg/ml of NADPH solution (20 mM Tris-HCl, pH 8.0) was added to initiate the hydrogenation reaction, as a preliminary study using cell lysate of A. tumefaciens C58 have shown that DEHU hydrogenation requires NADPH as a co-factor. The consumption of NADPH was monitored an absorbance at 340 nm for 30 min using the kinetic mode of ThermoMAX 96 well plate reader (Molecular Devises). E. coli cell lysate containing alcohol dehydrogenase (ADH) 10 lacking a portion of N-terminal domain was used in a control reaction mixture.

[4] = Assay for D-mannuronate hydrogenase (NADPH dependent hydrogenation); details: cell lysate, absorbance at 340 nm for 30 min, FIG. 7B
Experimental: as §1, with “D-mannuronate” for “DEHU”, “D-mannuronate” for “20-fold deluted DEHU”, “reaction.” for “reaction, as a preliminary study using cell lysate of A. tumefaciens C58 have shown that DEHU hydrogenation requires NADPH as a co-factor.”

Molecule	oxidation of 4-octanol measured by NADPH production [1]	mannuronate hydrogenase activity monitored by NADPH consumption [4]	further results
B1	catalyze the oxidation of 4-octanol in the presence of NADP+		
B2			catalysis of DEHU hydrogenase and mannuronate hydrogenase reactions in pyruvate formation from alginate [2]: capable of catalyzing both DEHU hydrogenase and mannuronate hydrogenase reactions
B3			catalysis of DEHU hydrogenase and mannuronate hydrogenase reactions in pyruvate formation from alginate [2]: capable of catalyzing both DEHU hydrogenase and mannuronate hydrogenase reactions
B4	catalyze the oxidation of 4-octanol in the presence of NADP+		
B5			DEHU hydrogenase activity monitored by NADPH consumption [3]: significant DEHU hydrogenase activity
B6		significant mannuronate hydrogenase activity	
B7		significant mannuronate hydrogenase activity	
B8			DEHU hydrogenase activity monitored by NADPH consumption [3]: significant DEHU hydrogenase activity
B9	catalyze the oxidation of 4-octanol in the presence of NADP+		
B10		significant mannuronate hydrogenase activity	
